# Experiments:
# [1] = molecular target: human FcγRI (CD64) (human) (UniProt P12314); assay: SPR, Biacore T200, antibody captured on protein A, FcγR as analyte, 37 °C, N=3
# [2] = molecular target: human FcγRIIb (CD32b) (human) (UniProt P31994); assay: as above
# human TNFα (human) = human TNFα (human) (UniProt P01375); assay: CG-MALS of antibody:TNFα complexes, molar ratios about 0.5 to 5.0, antibody 10 µg/mL, PBS pH 7.2
# Chain of human TNFα (human) (P01375 77-233 limits assumed): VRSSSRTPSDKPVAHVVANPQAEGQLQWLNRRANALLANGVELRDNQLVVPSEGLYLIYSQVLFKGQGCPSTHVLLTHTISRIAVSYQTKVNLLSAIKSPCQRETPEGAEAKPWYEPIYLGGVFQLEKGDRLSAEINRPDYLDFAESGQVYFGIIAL
# Chain of human FcγRI (CD64) (human) (P12314 16-288 limits assumed): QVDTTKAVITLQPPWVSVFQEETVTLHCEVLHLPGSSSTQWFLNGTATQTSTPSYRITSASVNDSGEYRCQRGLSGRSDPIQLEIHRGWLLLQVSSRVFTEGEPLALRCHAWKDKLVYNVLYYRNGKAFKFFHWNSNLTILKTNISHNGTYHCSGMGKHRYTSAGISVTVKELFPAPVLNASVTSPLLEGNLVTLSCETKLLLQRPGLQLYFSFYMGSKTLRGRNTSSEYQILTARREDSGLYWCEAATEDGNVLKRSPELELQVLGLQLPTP
# Chain of human FcγRIIb (CD32b) (human) (P31994 43-217 limits assumed): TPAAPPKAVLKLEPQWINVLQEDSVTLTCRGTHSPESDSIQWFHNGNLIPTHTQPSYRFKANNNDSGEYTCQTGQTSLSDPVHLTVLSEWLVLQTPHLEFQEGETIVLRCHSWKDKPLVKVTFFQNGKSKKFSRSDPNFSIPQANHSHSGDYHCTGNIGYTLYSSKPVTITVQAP
substance,measurement,setting,value
"parental anti-TNFα antibody (adalimumab, as described in U.S. Pat. No. 6,090,382)",Kd,[1],0.0563 nM
same,Kd,[2],5730 nM
same,maximum immune complex weight average molecular weight,human TNFα (human),> 1300 kDa
